Laboratory results as given in PMC9482650, “Quantitative fragmentomics allow affinity mapping of interactomes” (Nature Communications, 2022).

T1: DLG3_3, Q92796
T1 sequence (Q92796 374-475, limits assumed, looked up): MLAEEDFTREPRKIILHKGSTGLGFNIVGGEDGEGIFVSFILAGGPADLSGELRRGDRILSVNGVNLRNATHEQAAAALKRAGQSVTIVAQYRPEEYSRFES

T2: SNTG1, Q9NSN8
T2 sequence (Q9NSN8 52-150, limits assumed, looked up): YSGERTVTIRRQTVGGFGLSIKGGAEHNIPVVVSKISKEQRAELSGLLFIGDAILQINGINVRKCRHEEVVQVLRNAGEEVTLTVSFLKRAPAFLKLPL

T3: APBA2_1, Q99767
T3 sequence (Q99767 563-664, limits assumed, looked up): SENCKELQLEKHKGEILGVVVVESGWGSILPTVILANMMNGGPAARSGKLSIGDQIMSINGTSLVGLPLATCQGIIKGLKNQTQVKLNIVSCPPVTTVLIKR

T4: DLG3_2, Q92796
T4 sequence (Q92796 221-321, limits assumed, looked up): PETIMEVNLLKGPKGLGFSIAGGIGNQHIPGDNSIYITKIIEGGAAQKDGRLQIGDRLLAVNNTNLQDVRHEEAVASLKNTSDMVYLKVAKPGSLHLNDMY

T5: DFNB31_3, Q9P202
T5 sequence (Q9P202 811-907, limits assumed, looked up): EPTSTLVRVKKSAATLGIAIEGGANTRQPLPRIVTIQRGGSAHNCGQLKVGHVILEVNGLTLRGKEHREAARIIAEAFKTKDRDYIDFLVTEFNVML

T6: SNTA1, Q13424
T6 sequence (Q13424 82-180, limits assumed, looked up): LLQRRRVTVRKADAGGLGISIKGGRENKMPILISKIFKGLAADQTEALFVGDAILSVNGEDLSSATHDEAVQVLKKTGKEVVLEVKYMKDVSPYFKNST

T7: PARD3B_1, Q8TEW8
T7 sequence (Q8TEW8 196-299, limits assumed, looked up): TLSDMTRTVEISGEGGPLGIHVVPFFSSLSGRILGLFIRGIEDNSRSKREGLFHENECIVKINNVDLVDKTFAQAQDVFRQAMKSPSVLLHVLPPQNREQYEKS

T8: APBA3_1, O96018
T8 sequence (O96018 389-490, limits assumed, looked up): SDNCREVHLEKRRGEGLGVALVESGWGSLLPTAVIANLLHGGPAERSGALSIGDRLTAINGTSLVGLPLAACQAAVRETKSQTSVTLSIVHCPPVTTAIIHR

T9: HTRA3, P83110
T9 sequence (P83110 354-453, limits assumed, looked up): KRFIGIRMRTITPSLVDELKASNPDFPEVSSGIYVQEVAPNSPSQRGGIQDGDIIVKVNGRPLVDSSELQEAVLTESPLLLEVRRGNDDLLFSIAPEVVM

T10: MPP6, Q9NZW5
T10 sequence (Q9NZW5 125-219, limits assumed, looked up): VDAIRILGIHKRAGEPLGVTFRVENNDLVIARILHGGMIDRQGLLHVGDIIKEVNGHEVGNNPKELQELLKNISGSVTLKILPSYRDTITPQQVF

T11: DFNB31_2, Q9P202
T11 sequence (Q9P202 274-371, limits assumed, looked up): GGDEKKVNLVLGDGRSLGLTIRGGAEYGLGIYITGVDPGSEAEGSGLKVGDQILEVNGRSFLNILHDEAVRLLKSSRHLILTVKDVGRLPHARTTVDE


Target: T1, DLG3_3, Q92796
Test: holdup assay
Design: key: below the threshold = too weak to quantify, mostly under pKd 3.1 to 4
Conditions: plain residues with an end cap or a label only (N-terminal biotin on a linker: ado-ado)

Row | Binder | pKd
1 | PYSESDDDWC [CACNA1A, O00555] | below the threshold
2 | KKMLQRRTLL [OR8G1, Q15617] | below the threshold

Target: Inadl_9, Q8NI35
Sequence (Q8NI35 1530-1615): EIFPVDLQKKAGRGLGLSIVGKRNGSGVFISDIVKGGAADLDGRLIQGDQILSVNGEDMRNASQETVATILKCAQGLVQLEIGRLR
Test: holdup assay
Design: key: below the threshold = too weak to quantify, mostly under pKd 3.1 to 4
Conditions: plain residues with an end cap or a label only (N-terminal biotin on a linker: ado-ado)

Row | Binder | pKd
3 | PYSESDDDWC [CACNA1A, O00555] | below the threshold
4 | KKMLQRRTLL [OR8G1, Q15617] | below the threshold

Target: MAGI2_4, Q86UL8
Sequence (Q86UL8 772-865): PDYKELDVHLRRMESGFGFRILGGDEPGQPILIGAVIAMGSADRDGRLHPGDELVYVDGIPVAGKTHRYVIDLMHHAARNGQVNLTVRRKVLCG
Test: holdup assay
Design: key: below the threshold = too weak to quantify, mostly under pKd 3.1 to 4
Conditions: plain residues with an end cap or a label only (N-terminal biotin on a linker: ado-ado)

Row | Binder | pKd
5 | PYSESDDDWC [CACNA1A, O00555] | below the threshold
6 | KKMLQRRTLL [OR8G1, Q15617] | below the threshold

Target: NHERF2_2, Q15599
Sequence (Q15599 142-238): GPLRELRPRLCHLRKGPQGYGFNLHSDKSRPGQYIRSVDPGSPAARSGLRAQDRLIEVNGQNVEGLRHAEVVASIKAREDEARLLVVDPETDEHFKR
Test: holdup assay
Design: key: below the threshold = too weak to quantify, mostly under pKd 3.1 to 4
Conditions: plain residues with an end cap or a label only (N-terminal biotin on a linker: ado-ado)

Row | Binder | pKd
7 | PYSESDDDWC [CACNA1A, O00555] | 3.74
8 | KKMLQRRTLL [OR8G1, Q15617] | 3.61

Target: T2, SNTG1, Q9NSN8
Test: holdup assay
Design: key: below the threshold = too weak to quantify, mostly under pKd 3.1 to 4
Conditions: plain residues with an end cap or a label only (N-terminal biotin on a linker: ado-ado)

Row | Binder | pKd
9 | PYSESDDDWC [CACNA1A, O00555] | 3.66
10 | KKMLQRRTLL [OR8G1, Q15617] | below the threshold

Target: HTRA1, Q92743
Sequence (Q92743 360-477): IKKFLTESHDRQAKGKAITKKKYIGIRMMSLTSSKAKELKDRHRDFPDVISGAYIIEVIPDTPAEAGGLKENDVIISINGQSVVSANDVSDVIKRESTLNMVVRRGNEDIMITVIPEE
Test: holdup assay
Design: key: below the threshold = too weak to quantify, mostly under pKd 3.1 to 4
Conditions: plain residues with an end cap or a label only (N-terminal biotin on a linker: ado-ado)

Row | Binder | pKd
11 | PYSESDDDWC [CACNA1A, O00555] | 4.53
12 | KKMLQRRTLL [OR8G1, Q15617] | below the threshold

Target: T3, APBA2_1, Q99767
Test: holdup assay
Design: key: below the threshold = too weak to quantify, mostly under pKd 3.1 to 4
Conditions: plain residues with an end cap or a label only (N-terminal biotin on a linker: ado-ado)

Row | Binder | pKd
13 | PYSESDDDWC [CACNA1A, O00555] | below the threshold
14 | KKMLQRRTLL [OR8G1, Q15617] | below the threshold

Target: GRASP, Q7Z6J2
Sequence (Q7Z6J2 96-193): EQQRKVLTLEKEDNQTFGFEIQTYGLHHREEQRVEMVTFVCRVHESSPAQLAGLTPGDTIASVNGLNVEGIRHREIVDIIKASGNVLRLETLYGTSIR
Test: holdup assay
Design: key: below the threshold = too weak to quantify, mostly under pKd 3.1 to 4
Conditions: plain residues with an end cap or a label only (N-terminal biotin on a linker: ado-ado)

Row | Binder | pKd
15 | PYSESDDDWC [CACNA1A, O00555] | below the threshold
16 | KKMLQRRTLL [OR8G1, Q15617] | 5.05

Target: DLG4_3, P78352
Sequence (P78352 306-403): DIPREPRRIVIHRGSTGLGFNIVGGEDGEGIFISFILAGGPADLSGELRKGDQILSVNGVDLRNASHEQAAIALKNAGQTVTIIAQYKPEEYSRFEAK
Test: holdup assay
Design: key: below the threshold = too weak to quantify, mostly under pKd 3.1 to 4
Conditions: plain residues with an end cap or a label only (N-terminal biotin on a linker: ado-ado)

Row | Binder | pKd
17 | PYSESDDDWC [CACNA1A, O00555] | below the threshold
18 | KKMLQRRTLL [OR8G1, Q15617] | below the threshold

Target: T4, DLG3_2, Q92796
Test: holdup assay
Design: key: below the threshold = too weak to quantify, mostly under pKd 3.1 to 4
Conditions: plain residues with an end cap or a label only (N-terminal biotin on a linker: ado-ado)

Row | Binder | pKd
19 | PYSESDDDWC [CACNA1A, O00555] | 4.16
20 | KKMLQRRTLL [OR8G1, Q15617] | below the threshold

Target: Inadl_2, Q8NI35
Sequence (Q8NI35 238-335): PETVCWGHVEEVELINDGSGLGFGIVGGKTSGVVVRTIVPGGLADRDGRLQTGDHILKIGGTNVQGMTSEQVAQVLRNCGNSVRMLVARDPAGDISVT
Test: holdup assay
Design: key: below the threshold = too weak to quantify, mostly under pKd 3.1 to 4
Conditions: plain residues with an end cap or a label only (N-terminal biotin on a linker: ado-ado)

Row | Binder | pKd
21 | PYSESDDDWC [CACNA1A, O00555] | below the threshold
22 | KKMLQRRTLL [OR8G1, Q15617] | below the threshold

Target: T5, DFNB31_3, Q9P202
Test: holdup assay
Design: key: below the threshold = too weak to quantify, mostly under pKd 3.1 to 4
Conditions: plain residues with an end cap or a label only (N-terminal biotin on a linker: ado-ado)

Row | Binder | pKd
23 | PYSESDDDWC [CACNA1A, O00555] | 3.6
24 | KKMLQRRTLL [OR8G1, Q15617] | 4.08

Target: T6, SNTA1, Q13424
Test: holdup assay
Design: key: below the threshold = too weak to quantify, mostly under pKd 3.1 to 4
Conditions: plain residues with an end cap or a label only (N-terminal biotin on a linker: ado-ado)

Row | Binder | pKd
25 | PYSESDDDWC [CACNA1A, O00555] | below the threshold
26 | KKMLQRRTLL [OR8G1, Q15617] | 3.58

Target: T7, PARD3B_1, Q8TEW8
Test: holdup assay
Design: key: below the threshold = too weak to quantify, mostly under pKd 3.1 to 4
Conditions: plain residues with an end cap or a label only (N-terminal biotin on a linker: ado-ado)

Row | Binder | pKd
27 | PYSESDDDWC [CACNA1A, O00555] | 3.61
28 | KKMLQRRTLL [OR8G1, Q15617] | 4.47

Target: IL16_1, Q14005
Sequence (Q14005 210-306): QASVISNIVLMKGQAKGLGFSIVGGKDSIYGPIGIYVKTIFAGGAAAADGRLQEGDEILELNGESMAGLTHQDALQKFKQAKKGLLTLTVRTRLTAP
Test: holdup assay
Design: key: below the threshold = too weak to quantify, mostly under pKd 3.1 to 4
Conditions: plain residues with an end cap or a label only (N-terminal biotin on a linker: ado-ado)

Row | Binder | pKd
29 | PYSESDDDWC [CACNA1A, O00555] | below the threshold
30 | KKMLQRRTLL [OR8G1, Q15617] | below the threshold

Target: LNX1_2, Q8TBB1
Sequence (Q8TBB1 371-470): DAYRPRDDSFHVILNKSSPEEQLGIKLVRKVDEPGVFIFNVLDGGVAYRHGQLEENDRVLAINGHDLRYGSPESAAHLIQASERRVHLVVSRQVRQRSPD
Test: holdup assay
Design: key: below the threshold = too weak to quantify, mostly under pKd 3.1 to 4
Conditions: plain residues with an end cap or a label only (N-terminal biotin on a linker: ado-ado)

Row | Binder | pKd
31 | PYSESDDDWC [CACNA1A, O00555] | below the threshold
32 | KKMLQRRTLL [OR8G1, Q15617] | below the threshold

Target: LAP2, Q96RT1
Sequence (Q96RT1 other isoform, or with tags, fused parts or gaps): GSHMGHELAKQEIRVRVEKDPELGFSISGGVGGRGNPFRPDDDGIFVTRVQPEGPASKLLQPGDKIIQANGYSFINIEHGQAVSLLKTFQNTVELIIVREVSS
Test: holdup assay
Design: key: below the threshold = too weak to quantify, mostly under pKd 3.1 to 4
Conditions: plain residues with an end cap or a label only (N-terminal biotin on a linker: ado-ado)

Row | Binder | pKd
33 | PYSESDDDWC [CACNA1A, O00555] | 3.87
34 | KKMLQRRTLL [OR8G1, Q15617] | below the threshold

Target: T8, APBA3_1, O96018
Test: holdup assay
Design: key: below the threshold = too weak to quantify, mostly under pKd 3.1 to 4
Conditions: plain residues with an end cap or a label only (N-terminal biotin on a linker: ado-ado)

Row | Binder | pKd
35 | PYSESDDDWC [CACNA1A, O00555] | below the threshold
36 | KKMLQRRTLL [OR8G1, Q15617] | below the threshold

Target: IL16_4, Q14005
Sequence (Q14005 1229-1329): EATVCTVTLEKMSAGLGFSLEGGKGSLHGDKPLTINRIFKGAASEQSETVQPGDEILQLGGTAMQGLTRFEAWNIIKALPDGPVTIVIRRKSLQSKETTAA
Test: holdup assay
Design: key: below the threshold = too weak to quantify, mostly under pKd 3.1 to 4
Conditions: plain residues with an end cap or a label only (N-terminal biotin on a linker: ado-ado)

Row | Binder | pKd
37 | PYSESDDDWC [CACNA1A, O00555] | below the threshold
38 | KKMLQRRTLL [OR8G1, Q15617] | below the threshold

Target: GRIP2_5, Q9C0E4
Sequence (Q9C0E4 544-642): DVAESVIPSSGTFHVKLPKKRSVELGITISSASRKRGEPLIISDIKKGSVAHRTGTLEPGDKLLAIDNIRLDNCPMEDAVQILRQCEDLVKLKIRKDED
Test: holdup assay
Design: key: below the threshold = too weak to quantify, mostly under pKd 3.1 to 4
Conditions: plain residues with an end cap or a label only (N-terminal biotin on a linker: ado-ado)

Row | Binder | pKd
39 | PYSESDDDWC [CACNA1A, O00555] | below the threshold
40 | KKMLQRRTLL [OR8G1, Q15617] | below the threshold

Target: T9, HTRA3, P83110
Test: holdup assay
Design: key: below the threshold = too weak to quantify, mostly under pKd 3.1 to 4
Conditions: plain residues with an end cap or a label only (N-terminal biotin on a linker: ado-ado)

Row | Binder | pKd
41 | PYSESDDDWC [CACNA1A, O00555] | 5.79
42 | KKMLQRRTLL [OR8G1, Q15617] | below the threshold

Target: T10, MPP6, Q9NZW5
Test: holdup assay
Design: key: below the threshold = too weak to quantify, mostly under pKd 3.1 to 4
Conditions: plain residues with an end cap or a label only (N-terminal biotin on a linker: ado-ado)

Row | Binder | pKd
43 | PYSESDDDWC [CACNA1A, O00555] | below the threshold
44 | KKMLQRRTLL [OR8G1, Q15617] | below the threshold

Target: T11, DFNB31_2, Q9P202
Test: holdup assay
Design: key: below the threshold = too weak to quantify, mostly under pKd 3.1 to 4
Conditions: plain residues with an end cap or a label only (N-terminal biotin on a linker: ado-ado)

Row | Binder | pKd
45 | PYSESDDDWC [CACNA1A, O00555] | below the threshold
46 | KKMLQRRTLL [OR8G1, Q15617] | below the threshold

Target: SCRIB_1, Q14160
Sequence (Q14160 718-814): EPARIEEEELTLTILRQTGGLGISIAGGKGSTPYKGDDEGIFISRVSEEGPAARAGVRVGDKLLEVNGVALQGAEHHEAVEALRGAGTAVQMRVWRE
Test: holdup assay
Design: key: below the threshold = too weak to quantify, mostly under pKd 3.1 to 4
Conditions: plain residues with an end cap or a label only (N-terminal biotin on a linker: ado-ado)

Row | Binder | pKd
47 | PYSESDDDWC [CACNA1A, O00555] | below the threshold
48 | KKMLQRRTLL [OR8G1, Q15617] | 3.71

Target: MAST1, Q9Y2H9
Sequence (Q9Y2H9 962-1065): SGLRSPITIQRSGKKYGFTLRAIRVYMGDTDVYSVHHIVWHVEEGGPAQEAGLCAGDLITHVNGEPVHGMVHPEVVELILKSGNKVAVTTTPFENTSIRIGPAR
Test: holdup assay
Design: key: below the threshold = too weak to quantify, mostly under pKd 3.1 to 4
Conditions: plain residues with an end cap or a label only (N-terminal biotin on a linker: ado-ado)

Row | Binder | pKd
49 | PYSESDDDWC [CACNA1A, O00555] | below the threshold
50 | KKMLQRRTLL [OR8G1, Q15617] | 4.41

Target: Inadl_6, Q8NI35
Sequence (Q8NI35 1058-1167): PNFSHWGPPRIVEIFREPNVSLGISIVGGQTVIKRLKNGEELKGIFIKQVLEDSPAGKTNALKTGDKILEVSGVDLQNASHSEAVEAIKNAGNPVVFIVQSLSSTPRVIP
Test: holdup assay
Design: key: below the threshold = too weak to quantify, mostly under pKd 3.1 to 4
Conditions: plain residues with an end cap or a label only (N-terminal biotin on a linker: ado-ado)

Row | Binder | pKd
51 | PYSESDDDWC [CACNA1A, O00555] | below the threshold
52 | KKMLQRRTLL [OR8G1, Q15617] | below the threshold
